{
  "source": "patent EP1908827A2",
  "key": {"[1]": {"target": "PP1c (type-1 protein phosphatase catalytic subunit, PP1c alpha)", "test": "PP1c pull-down from extracts of cardiomyocytes co-infected with Ad-I-1 and AdPKCα dn, I-1 western blot quantified"}, "[2]": {"target": "PP1c (type-1 protein phosphatase catalytic subunit, PP1c alpha)", "test": "PP1c pull-down from extracts of cardiomyocytes co-infected with Ad-I-1 and AdPKCα wt, I-1 western blot quantified"}},
  "data": [
    {"substance": "Inhibitor-1 (I-1), expressed from adenovirus in neonatal rat cardiomyocyte cultures", "values": [
      {"measurement": "change in I-1 co-precipitated with PP1c (dominant negative PKCα co-expressed, against I-1 + β-gal)", "setting": "[1]", "result": "> 70", "unit": "% increase"},
      {"measurement": "change in I-1 co-precipitated with PP1c (wildtype PKCα co-expressed, against I-1 + β-gal)", "setting": "[2]", "result": 50, "unit": "% reduction"}
    ]}
  ]
}
